Common to all, as to assay: ELISA
(In general: In an ELISA, binding on a coated surface is turned into a signal by an enzyme label.)

In test [1] the target is T1, HCoV-OC43 spike protein (HCoV-OC43).
T1 chain: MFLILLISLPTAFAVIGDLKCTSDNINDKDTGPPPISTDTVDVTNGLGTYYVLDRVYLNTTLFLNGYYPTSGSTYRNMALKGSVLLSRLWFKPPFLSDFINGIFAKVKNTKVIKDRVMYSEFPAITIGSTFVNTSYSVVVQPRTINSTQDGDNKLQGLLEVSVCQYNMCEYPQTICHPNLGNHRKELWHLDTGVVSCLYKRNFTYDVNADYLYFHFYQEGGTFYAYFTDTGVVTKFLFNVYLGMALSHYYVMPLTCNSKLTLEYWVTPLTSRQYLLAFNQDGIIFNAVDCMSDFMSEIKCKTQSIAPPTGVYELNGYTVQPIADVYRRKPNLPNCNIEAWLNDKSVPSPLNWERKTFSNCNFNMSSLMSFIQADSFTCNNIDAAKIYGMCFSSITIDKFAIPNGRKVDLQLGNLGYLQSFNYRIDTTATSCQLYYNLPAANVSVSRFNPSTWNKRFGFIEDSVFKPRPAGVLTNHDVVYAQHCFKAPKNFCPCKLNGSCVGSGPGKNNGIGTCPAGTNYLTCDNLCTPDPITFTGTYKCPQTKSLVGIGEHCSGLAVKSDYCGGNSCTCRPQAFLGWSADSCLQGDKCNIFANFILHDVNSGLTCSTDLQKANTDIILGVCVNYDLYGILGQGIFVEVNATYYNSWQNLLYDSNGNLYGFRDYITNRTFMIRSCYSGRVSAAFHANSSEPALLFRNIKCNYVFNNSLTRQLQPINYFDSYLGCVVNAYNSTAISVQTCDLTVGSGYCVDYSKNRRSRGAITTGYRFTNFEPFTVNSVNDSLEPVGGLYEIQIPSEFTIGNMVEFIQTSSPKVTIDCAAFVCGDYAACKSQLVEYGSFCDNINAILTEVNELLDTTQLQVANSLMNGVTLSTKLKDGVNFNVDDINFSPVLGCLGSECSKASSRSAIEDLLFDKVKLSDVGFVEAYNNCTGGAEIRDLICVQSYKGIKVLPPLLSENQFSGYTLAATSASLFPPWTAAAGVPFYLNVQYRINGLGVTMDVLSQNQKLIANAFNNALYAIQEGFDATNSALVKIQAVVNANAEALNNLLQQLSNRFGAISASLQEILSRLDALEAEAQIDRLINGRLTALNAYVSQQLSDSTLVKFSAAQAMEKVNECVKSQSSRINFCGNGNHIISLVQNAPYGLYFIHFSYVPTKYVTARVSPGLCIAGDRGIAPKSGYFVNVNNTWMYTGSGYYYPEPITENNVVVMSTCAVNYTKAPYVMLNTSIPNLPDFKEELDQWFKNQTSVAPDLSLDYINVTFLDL

Test [2] concerns the target T2, HKU1 spike protein (HCoV-HKU1).
T2 chain: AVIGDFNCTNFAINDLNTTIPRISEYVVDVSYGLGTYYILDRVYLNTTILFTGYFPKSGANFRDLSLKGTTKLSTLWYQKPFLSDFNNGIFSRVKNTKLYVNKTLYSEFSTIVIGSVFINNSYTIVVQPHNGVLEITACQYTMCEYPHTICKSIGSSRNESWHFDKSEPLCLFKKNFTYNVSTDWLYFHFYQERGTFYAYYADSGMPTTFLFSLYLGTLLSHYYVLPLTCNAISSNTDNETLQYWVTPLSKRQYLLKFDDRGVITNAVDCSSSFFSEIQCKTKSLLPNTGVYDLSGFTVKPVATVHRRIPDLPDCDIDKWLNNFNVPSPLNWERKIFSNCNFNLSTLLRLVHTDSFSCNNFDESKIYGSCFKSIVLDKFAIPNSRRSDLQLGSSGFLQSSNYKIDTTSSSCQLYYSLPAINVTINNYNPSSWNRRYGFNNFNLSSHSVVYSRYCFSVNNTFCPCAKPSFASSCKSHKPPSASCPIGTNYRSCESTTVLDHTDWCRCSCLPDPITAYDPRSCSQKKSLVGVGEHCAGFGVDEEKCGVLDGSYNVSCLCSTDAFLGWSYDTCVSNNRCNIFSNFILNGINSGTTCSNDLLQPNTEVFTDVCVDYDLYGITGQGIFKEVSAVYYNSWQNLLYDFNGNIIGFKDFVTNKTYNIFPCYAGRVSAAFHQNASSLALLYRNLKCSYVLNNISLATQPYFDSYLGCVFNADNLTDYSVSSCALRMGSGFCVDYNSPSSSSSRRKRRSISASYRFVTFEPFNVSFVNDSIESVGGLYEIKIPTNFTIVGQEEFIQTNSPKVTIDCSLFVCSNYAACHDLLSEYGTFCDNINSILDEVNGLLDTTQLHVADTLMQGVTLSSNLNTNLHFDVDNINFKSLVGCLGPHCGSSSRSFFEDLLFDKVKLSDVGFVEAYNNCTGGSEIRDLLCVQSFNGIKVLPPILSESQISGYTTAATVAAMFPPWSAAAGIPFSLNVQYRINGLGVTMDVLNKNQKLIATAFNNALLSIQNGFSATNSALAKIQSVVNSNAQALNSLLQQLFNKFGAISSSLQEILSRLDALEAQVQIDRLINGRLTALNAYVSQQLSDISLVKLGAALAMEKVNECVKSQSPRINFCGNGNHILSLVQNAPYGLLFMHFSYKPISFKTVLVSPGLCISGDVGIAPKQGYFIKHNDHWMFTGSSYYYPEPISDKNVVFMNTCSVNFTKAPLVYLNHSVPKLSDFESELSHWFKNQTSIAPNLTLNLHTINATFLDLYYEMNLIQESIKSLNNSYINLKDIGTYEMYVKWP

Test [3] has as its target SARS-CoV-2 S2 domain (UniProt P0DTC2 686-1213).
Test [4] has as its target SARS-CoV-2 prefusion stabilized trimer protein (WIV02 isolate spike protein) (UniProt P0DTC2 14-1213).

B1: 1-L10-A (antibody, V domains shown)
VH: EVKLEESGGGLVQPGGSMKLSCVASGFTFNNYWMNWVRQSPEKGLEWVAQMRLKSDNYATHYAESVKGRFTISRDDSKSSVYLQMNNLRAEDTGIYYCIEGYWTYWGQGTLVTVSA
VL: QIVLTQSPAIMSASLGERVTMTCTASSSVSSSYLHWYQQKPGSSPKLWIYSTSNLASGVPARFSGNGSGTSYSLTISSMEAEDAATYYCLQYHRSPPYTFGGGTKLEIK
Take B1: the EC50 amounted to 0.77 nM in test [1] and 2.73 nM in test [2].

B2: 2-G20-A (antibody, V domains shown)
VH: EVQLQQSGPELVKPGASVKMSCKASGYTFPSYVLHWVKQKPGQGLEWIGYIYPYNDGTNYNEKFKGKATLTSDKSSSTAYMELSSLTSEDSAVYYCARGDYGDSAWFPYWGQGTLVTVSA
VL: DIVLTQSPASLAVSLGQRATISCRASKSVSTSGYSYMHWYQQKPGQPPKLLIYLASNLKSGVPARFSGGGSGTDFTLNIHPVEEEDAATYYCQLSRELPWTFGGGTKLEIK
With B2, the EC50 in test [1] is 0.28 nM; in test [2], 1.39 nM.

B3: 9-F6-A (antibody, V domains shown)
VH: EVQLQQSGPELVKPGASVKMSCKASGYTFTSYIMHWVKQKPGQGLEWIGYILPYNDGTKYNEKFKGKATLTSDKSSSTAYMELRSLTSEDSAVYYCARWGYSNFLDSWGQGTTLTVSS
VL: DIQMTQTTSSLSASLGDRVTISCRASQDINNYLNWYQQKPDGTVKLLIYYTSRLHSGVPSRFSGSGSGTDYSLTIRNLEQEDIATYFCQQGNTLPPTFGGGTKLEIK
On to B3, for which the concentration for a half-maximal effect (EC50) in test [1] came to 0.05 nM; in test [2], 0.61 nM.

B4: 1-B11-A (antibody, V domains shown)
VH: QVQLQQSGPELVKPGASVKISCKASGYTFTDHYINWVKQRPGQGLEWIGWIFPGSGSTYYNEQFKGKATLTVDKSSNTAYMLLSSLTSEDSAVYFCARSGGLRLGFAYWGQGTLVTVSA
VL: DIQMTQTTSSLSASLGDRVTISCRASQDISNYLNWYQQKPDGTVKLLIYYTSRLHSGVPSRFSGSGSGTDYSLTISNLEQEDISTYFCQQVNTLPYTFGGGTKLEIK
Consider B4, for which the EC50 in test [3] is 6.62 nM; in test [4], 10.3 nM; in test [1] it was 0.57 nM; in test [2], 0.82 nM.

B5: 7-D7-A (antibody, V domains shown)
VH: QVQLKESGPGLVAPSQSLSITCTVSGFSLTSYAISWVRQPPGKGLEWLGVIWPGGGTNYNSALKSRLSISKDNSKSQVFLKMNSLQTDDTAKYYCARTGYYFDYWGQGTTLTVSS
VL: QLILTQSPAIMSASPGEKVTMTCSASLSVNYMYWFQQKPGTSPKRWIHDTSKLASGVPARFSGSGSGTSYSLTISSMEAEDAATYYCQQWSSNPPMYTFGGGTKLEIK
Turning to B5, the 50% effective concentration (EC50) was 0.23 nM in test [1] and 1.3 nM in test [2].

B6: 8-A17-A (antibody, V domains shown)
VH: QVQLKESGPGLVAPSQSLSITCTVSGFSLTSYAISWVRQPPGKGLEWLGVVWPGGGTNYNSALKSRLSINKDNSKSQVFLKMNSLQTDDTGRYYCARTGYHFDYWGQGTTLTVSS
VL: QIVLTQSPAIMSASPGEKVTMTCSVSSSVSYMHWYQQKSGTSPKRWIYDTSKLASGVPARFSGSGSGTSYSLTISSMEAEDAATYYCQQWSSNPPMYTFGGGTKLEIK
On to B6, for which the EC50 was 0.05 nM in test [1] and 0.37 nM in test [2].

B7: 6-O12-A (antibody, V domains shown)
VH: QVQLQQPGTELVKPGASVKLSCKASGYTFTSYWMHWVKQRPGQGLEWIGNINPSNGGTNYNEKFRSKATLTVDKSSSTAYMQLSSLTSEDSAVYYCARLGWFLPLGSWGQGTTLTVSS
VL: QIVLTQSPAIMSASLGEVITLTCSASSSVSYMHWYQQKSGTSPKLLIYSTSNLASGVPSRFSGSGSGTFYSLTISSVEAEDAADYYCHQWSGYMYTFGGGTKLEIK
Regarding B7, the EC50 came out at 0.23 nM in test [1] and 0.41 nM in test [2].

A word on the EC50: it is the midpoint of the concentration-response curve. Lower therefore signals an effect from little substance.
